22 sequences from the supplement of paper PMC9233669 can be followed below.

The subject of data set [1] is biotinyl-Ile-oxazolone. Put plainly: self-aminoacylation, catalytic enhancement (BIO) (fold over background); higher = more active; k-Seq, kA / k0A0; sequences stand for … in GGGAAUGGAUCCACAUCUACGAAUUC…UUCACUGCAGACUUGACGAAGCUG
The procedure, abridged:
(§1)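 Catalytic enhancement equals the median kA over the uncatalyzed rate, the latter read from the low-activity peak of a bimodal Gaussian fit. Values of kA came from fitting each sequence's fraction reacted to a pseudo-first-order model, with 1000 bootstraps. Reacted RNA was captured with streptavidin and quantified by triplicate qPCR and Illumina sequencing after 90 minutes at room temperature with 2–1250 μM biotinyl-aminoacyl-oxazolone and 0.43 μM mutagenized RNA pools bearing a 21-nt variable region.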

For data set [2], the system named is biotinyl-Trp-oxazolone. Put plainly: self-aminoacylation, catalytic enhancement (BWO) (fold over background); higher = more active; k-Seq, kA / k0A0; sequences stand for … in GGGAAUGGAUCCACAUCUACGAAUUC…UUCACUGCAGACUUGACGAAGCUG
The procedure, abridged:
as §1

The test system of data set [3] is biotinyl-Leu-oxazolone. Put plainly: self-aminoacylation, catalytic enhancement (BLO) (fold over background); higher = more active; k-Seq, kA / k0A0; sequences stand for … in GGGAAUGGAUCCACAUCUACGAAUUC…UUCACUGCAGACUUGACGAAGCUG
The procedure, abridged: as §1

For data set [4], the system named is biotinyl-Phe-oxazolone. Put plainly: self-aminoacylation, catalytic enhancement (BFO) (fold over background); higher = more active; k-Seq, kA / k0A0; sequences stand for … in GGGAAUGGAUCCACAUCUACGAAUUC…UUCACUGCAGACUUGACGAAGCUG
The procedure, abridged:
as §1

In data set [5] the test system is biotinyl-Val-oxazolone. In words: self-aminoacylation, catalytic enhancement (BVO) (fold over background); higher = more active; k-Seq, kA / k0A0; sequences stand for … in GGGAAUGGAUCCACAUCUACGAAUUC…UUCACUGCAGACUUGACGAAGCUG
A digest of the protocol: as §1

Data set [6] deals with biotinyl-Met-oxazolone. In words: self-aminoacylation, catalytic enhancement (BMO) (fold over background); higher = more active; k-Seq, kA / k0A0; sequences stand for … in GGGAAUGGAUCCACAUCUACGAAUUC…UUCACUGCAGACUUGACGAAGCUG
A digest of the protocol: as §1

This sample holds only a part of the variants without activity.

Take “CCACUUCAAACAAUCGGUCUA [Fam1A.1 aminoacylation ribozyme variant]”: the self-aminoacylation in data set [1] was 1.19; in data set [2], 17.4; in data set [3], 1.5; in data set [4] it was 28.5; in data set [5] it was 0.99; in data set [6], 0.991.
With “AUUACCCUAGUAAUCGAGUGA [Fam2.1 aminoacylation ribozyme variant]”, the self-aminoacylation is 3.08 in data set [1]; 9.47 in data set [2]; 7.45 in data set [3]; 46.5 in data set [4]; 3.18 in data set [5]; 6.75 in data set [6].
As to “AUUACCCUCGUCAUCGACUGA [Fam2.1 aminoacylation ribozyme variant]”, the self-aminoacylation in data set [1] is 0.735; in data set [2], 0.555; in data set [3] it was 0.644; in data set [4], 0.811; in data set [5], 0.877; in data set [6] it was 0.868.
As for “CUGCUUCAAACAAUCGGGCUG [Fam1A.1 aminoacylation ribozyme variant]”, the self-aminoacylation in data set [1] came out at 2.2; in data set [2], 36.1; in data set [3], 3.18; in data set [4] it was 38.7; in data set [5], 2.33; in data set [6], 2.66.
For the sequence “AAGUUUGGUAAUAGUCGCAAC [Fam3.1 aminoacylation ribozyme variant]”, the self-aminoacylation is 1.48 in data set [1]; 1.84 in data set [2]; 1.16 in data set [3]; 2.86 in data set [4]; 1.47 in data set [5]; 1.19 in data set [6].
On to “CUACUUCGAACAAUCGGUGUG [Fam1A.1 aminoacylation ribozyme variant]”, for which the self-aminoacylation came to 1.03 in data set [1]; 1.25 in data set [2]; 1.26 in data set [3]; 0.861 in data set [4]; 0.999 in data set [5]; 1.13 in data set [6].
On to “AAGUUCGCUAAUAGUGGCAAG [Fam3.1 aminoacylation ribozyme variant]”, for which the self-aminoacylation worked out at 0.737 in data set [1]; 0.444 in data set [2]; 0.8 in data set [3]; 0.484 in data set [4]; 0.56 in data set [5]; 0.601 in data set [6].
Consider “CUACUUCAAACAAUCCAUCUG [Fam1A.1 aminoacylation ribozyme variant]”, for which the self-aminoacylation in data set [1] came out at 0.656; in data set [2] it was 0.402; in data set [3] it was 0.546; in data set [4], 1.08; in data set [5], 0.748; in data set [6] it was 0.489.
“AUUCACCUGGGUUAUCGGGUG [Fam2.2 aminoacylation ribozyme variant]”: the self-aminoacylation amounted to 3.35 in data set [1]; 5.56 in data set [2]; 6.24 in data set [3]; 36.6 in data set [4]; 4 in data set [5]; 6.06 in data set [6].
As for “AUUCACCUAGGUCUUAGGGUG [Fam2.2 aminoacylation ribozyme variant]”, the self-aminoacylation in data set [1] was 3.08; in data set [2], 4.24; in data set [3], 7.06; in data set [4], 32.2; in data set [5] it was 2.85; in data set [6], 5.1.
On to “AAGUUUGCAAAUAGUCGAAAG [Fam3.1 aminoacylation ribozyme variant]”, for which the self-aminoacylation in data set [1] is 0.956; in data set [2], 1.04; in data set [3], 0.913; in data set [4], 1.58; in data set [5], 0.824; in data set [6], 0.974.
With “AUUCCCUUGGUCAUCGAGUGA [Fam2.1 aminoacylation ribozyme variant]”, the self-aminoacylation in data set [1] was determined as 6.22; in data set [2], 14.7; in data set [3], 12.3; in data set [4], 71.8; in data set [5] it was 6.58; in data set [6], 11.8.
For the sequence “AUUCUCCUGGGUCAUCGGGUG [Fam2.2 aminoacylation ribozyme variant]”, the self-aminoacylation in data set [1] was 6.05; in data set [2], 9.42; in data set [3] it was 10.8; in data set [4], 73.6; in data set [5], 7.53; in data set [6], 9.61.
Take “AUUCACCAAGGUCGUCGGGUG [Fam2.2 aminoacylation ribozyme variant]”: the self-aminoacylation in data set [1] was 2.09; in data set [2] it was 2.29; in data set [3] it was 3.05; in data set [4] it was 12.9; in data set [5] it was 2.58; in data set [6], 2.2.
For the sequence “CUACUUCAAAGCAUCGGUCUG [Fam1A.1 aminoacylation ribozyme variant]”, the self-aminoacylation was found to be 0.857 in data set [1]; 0.794 in data set [2]; 0.898 in data set [3]; 0.786 in data set [4]; 0.939 in data set [5]; 0.802 in data set [6].
On to “AAGCUUGCUAAUAGGCGCAAG [Fam3.1 aminoacylation ribozyme variant]”, for which the self-aminoacylation in data set [1] was 1.38; in data set [2] it was 1.2; in data set [3], 1.66; in data set [4] it was 1.46; in data set [5] it was 1.16; in data set [6], 1.12.
Regarding “AUUACCCCGGUCAUCGAGUGU [Fam2.1 aminoacylation ribozyme variant]”, the self-aminoacylation in data set [1] came to 1.56; in data set [2], 3.57; in data set [3] it was 2.45; in data set [4], 9.98; in data set [5] it was 1.87; in data set [6], 2.58.
In the case of “CUUCUUCAAACAAUCGGUCUG [Fam1A.1 aminoacylation ribozyme variant]”, the self-aminoacylation worked out at 0.898 in data set [1]; 17.6 in data set [2]; 1.41 in data set [3]; 35.5 in data set [4]; 0.902 in data set [5]; 0.996 in data set [6].
For the sequence “AUUCGCCUAGGUCAUCGGGCG [Fam2.2 aminoacylation ribozyme variant]”, the self-aminoacylation is 3.22 in data set [1]; 4.35 in data set [2]; 5.67 in data set [3]; 2.39 in data set [4]; 3.59 in data set [5]; 4.99 in data set [6].
In the case of “CCACUUUUCAAGCAAUCGGUC [Fam1B.1 aminoacylation ribozyme variant]”, the self-aminoacylation in data set [1] was found to be 1.25; in data set [2], 1.06; in data set [3] it was 1.1; in data set [4] it was 1.58; in data set [5] it was 1.32; in data set [6] it was 1.1.
As for “AUCACCCUGGUCAUCGUGUGA [Fam2.1 aminoacylation ribozyme variant]”, the self-aminoacylation in data set [1] turned out to be 1.81; in data set [2], 4.97; in data set [3], 5.08; in data set [4], 34.7; in data set [5], 2.31; in data set [6] it was 3.98.
With “AUCCACCUAGGCCAUCGGGUG [Fam2.2 aminoacylation ribozyme variant]”, the self-aminoacylation in data set [1] was 3.55; in data set [2], 6.22; in data set [3], 5.49; in data set [4], 27.4; in data set [5], 4.12; in data set [6], 3.46.
